The results in this text go back to patent US20230212268A1 (UNM RAINFOREST INNOVATIONS, published 2023).

Assay [1] addresses T1, recombinant EBOV glycoprotein (EBOV (Zaire ebolavirus), UniProt Q05320 33-650).
T1 sequence: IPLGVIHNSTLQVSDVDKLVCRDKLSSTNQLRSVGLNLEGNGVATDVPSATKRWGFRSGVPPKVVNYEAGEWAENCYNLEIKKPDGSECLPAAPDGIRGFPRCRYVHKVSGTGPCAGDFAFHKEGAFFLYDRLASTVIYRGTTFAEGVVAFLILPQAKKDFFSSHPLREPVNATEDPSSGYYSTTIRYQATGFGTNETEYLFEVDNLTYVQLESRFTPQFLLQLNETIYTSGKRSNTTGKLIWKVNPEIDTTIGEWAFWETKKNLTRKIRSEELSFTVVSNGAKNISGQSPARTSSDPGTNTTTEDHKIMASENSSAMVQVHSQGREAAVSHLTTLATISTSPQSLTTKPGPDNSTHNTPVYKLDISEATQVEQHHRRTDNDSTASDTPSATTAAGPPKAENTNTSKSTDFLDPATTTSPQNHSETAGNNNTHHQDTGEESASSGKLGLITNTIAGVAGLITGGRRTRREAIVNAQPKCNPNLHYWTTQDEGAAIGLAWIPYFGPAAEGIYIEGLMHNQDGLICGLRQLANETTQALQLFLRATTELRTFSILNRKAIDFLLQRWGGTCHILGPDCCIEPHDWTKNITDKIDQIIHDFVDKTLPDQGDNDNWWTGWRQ
The assay can be described thus: ELISA dose-response fit, reference scFv22-1. Background: In an ELISA, binding on a coated surface is turned into a signal by an enzyme label.

For assay [2], the target named is T2, recombinant SUDV glycoprotein (SUDV (Sudan ebolavirus), UniProt Q7T9D9 33-650).
T2 sequence: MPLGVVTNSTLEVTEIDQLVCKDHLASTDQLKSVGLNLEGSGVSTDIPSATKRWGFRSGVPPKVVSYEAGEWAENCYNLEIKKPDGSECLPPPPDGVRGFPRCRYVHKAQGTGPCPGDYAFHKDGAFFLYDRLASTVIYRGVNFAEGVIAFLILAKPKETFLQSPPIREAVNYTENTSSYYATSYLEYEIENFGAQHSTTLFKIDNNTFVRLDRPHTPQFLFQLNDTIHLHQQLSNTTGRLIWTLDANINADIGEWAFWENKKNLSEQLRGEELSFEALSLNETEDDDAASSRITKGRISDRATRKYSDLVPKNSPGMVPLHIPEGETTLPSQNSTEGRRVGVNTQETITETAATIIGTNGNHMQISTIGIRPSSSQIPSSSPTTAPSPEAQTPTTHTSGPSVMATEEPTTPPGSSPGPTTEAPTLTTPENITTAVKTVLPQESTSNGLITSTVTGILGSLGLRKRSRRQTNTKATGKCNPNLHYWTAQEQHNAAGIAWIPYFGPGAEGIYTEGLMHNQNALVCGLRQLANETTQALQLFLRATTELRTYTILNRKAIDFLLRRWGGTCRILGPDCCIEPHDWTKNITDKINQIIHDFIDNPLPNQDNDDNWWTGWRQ
The assay can be described thus: ELISA dose-response fit, reference scFv22-1.

Assay [3] concerns the target T3, recombinant TAFV glycoprotein (TAFV (Tai Forest virus), UniProt Q66810 33-650).
T3 sequence: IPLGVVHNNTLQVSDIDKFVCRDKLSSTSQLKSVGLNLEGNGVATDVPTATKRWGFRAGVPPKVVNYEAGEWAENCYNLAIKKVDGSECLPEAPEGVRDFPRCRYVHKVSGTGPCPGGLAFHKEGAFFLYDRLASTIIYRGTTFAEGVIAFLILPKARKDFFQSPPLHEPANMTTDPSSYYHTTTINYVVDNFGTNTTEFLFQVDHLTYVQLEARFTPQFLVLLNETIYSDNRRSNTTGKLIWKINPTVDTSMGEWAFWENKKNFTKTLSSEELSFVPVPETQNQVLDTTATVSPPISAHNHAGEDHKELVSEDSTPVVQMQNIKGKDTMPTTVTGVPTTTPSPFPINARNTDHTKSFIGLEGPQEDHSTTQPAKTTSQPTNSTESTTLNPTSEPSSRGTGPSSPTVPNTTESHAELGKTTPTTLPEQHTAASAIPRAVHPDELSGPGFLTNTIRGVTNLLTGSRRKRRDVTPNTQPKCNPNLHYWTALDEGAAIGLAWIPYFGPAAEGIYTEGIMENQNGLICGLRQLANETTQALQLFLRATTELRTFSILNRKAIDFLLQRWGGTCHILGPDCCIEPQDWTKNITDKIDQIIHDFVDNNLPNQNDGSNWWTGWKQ
Kind of assay: ELISA dose-response fit, reference scFv22-1.

Assay [4] concerns the target T4, recombinant MARV glycoprotein (MARV (marburgvirus, Ravn), UniProt Q1PDC7 19-648).
T4 sequence: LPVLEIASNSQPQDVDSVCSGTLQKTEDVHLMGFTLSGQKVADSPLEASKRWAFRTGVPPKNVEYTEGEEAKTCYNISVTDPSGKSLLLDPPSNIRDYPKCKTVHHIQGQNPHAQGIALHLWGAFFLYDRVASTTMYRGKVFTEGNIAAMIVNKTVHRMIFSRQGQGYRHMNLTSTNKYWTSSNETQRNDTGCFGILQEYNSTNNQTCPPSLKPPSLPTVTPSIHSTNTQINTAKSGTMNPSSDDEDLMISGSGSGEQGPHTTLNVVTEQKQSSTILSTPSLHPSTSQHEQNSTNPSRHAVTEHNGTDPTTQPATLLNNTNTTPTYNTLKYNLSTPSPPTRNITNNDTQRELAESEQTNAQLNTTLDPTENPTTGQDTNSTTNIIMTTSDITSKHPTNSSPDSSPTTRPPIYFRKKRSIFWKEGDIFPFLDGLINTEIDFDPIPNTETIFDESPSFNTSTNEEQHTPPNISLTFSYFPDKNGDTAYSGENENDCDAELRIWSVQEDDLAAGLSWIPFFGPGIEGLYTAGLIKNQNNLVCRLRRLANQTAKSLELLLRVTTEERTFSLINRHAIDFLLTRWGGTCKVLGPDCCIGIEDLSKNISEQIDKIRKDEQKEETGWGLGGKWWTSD
The assay can be described thus: ELISA dose-response fit, reference scFv22-1.

The target of assay [5] is T3, recombinant TAFV glycoprotein. The assay can be described thus: maximal binding from ELISA dose-response fit.

B1: EbovGPscFv4-2 (scFv)
scFv: MAWSHPQFEKTGSGGAELVKSGASVKLSCTASGFNIKDDYMHWVKQRPEQGLEWIGWIDPENGDTEYASKFQGKATITADTSSNTAYLQLSSLTSEDTAVYYCTTYYYGSAWFAYWGQGTLVTVSAGGGGSGGGGSGGGGSGGGGSASLSVSVGETVTITCRASGNIHNYLAWYQQKQGKSPQLLVYNAKTLADGVPSRFSGSGSGTQYSLKINNLQPEDFGSYYCQHFWSTPYTFGGGTKLEIKRADAAPTVSIFPPSSEQLTSGGASVVCFLNNFTHCQELQQDECS
As to B1, the “fold affinity against scFv22-1” value in assay [1], in assay [2], in assay [3] and in assay [4] was around 2 fold each time. In addition, the Bmax signal in assay [5] worked out at 280000 relative absorbance units.
